According to patent publication US6586658:

Target: FaoA-GUS fusion protein (UniProt P05804)
Sequence of UniProt P05804 (P05804 whole entry, looked up, the tested form may be a part): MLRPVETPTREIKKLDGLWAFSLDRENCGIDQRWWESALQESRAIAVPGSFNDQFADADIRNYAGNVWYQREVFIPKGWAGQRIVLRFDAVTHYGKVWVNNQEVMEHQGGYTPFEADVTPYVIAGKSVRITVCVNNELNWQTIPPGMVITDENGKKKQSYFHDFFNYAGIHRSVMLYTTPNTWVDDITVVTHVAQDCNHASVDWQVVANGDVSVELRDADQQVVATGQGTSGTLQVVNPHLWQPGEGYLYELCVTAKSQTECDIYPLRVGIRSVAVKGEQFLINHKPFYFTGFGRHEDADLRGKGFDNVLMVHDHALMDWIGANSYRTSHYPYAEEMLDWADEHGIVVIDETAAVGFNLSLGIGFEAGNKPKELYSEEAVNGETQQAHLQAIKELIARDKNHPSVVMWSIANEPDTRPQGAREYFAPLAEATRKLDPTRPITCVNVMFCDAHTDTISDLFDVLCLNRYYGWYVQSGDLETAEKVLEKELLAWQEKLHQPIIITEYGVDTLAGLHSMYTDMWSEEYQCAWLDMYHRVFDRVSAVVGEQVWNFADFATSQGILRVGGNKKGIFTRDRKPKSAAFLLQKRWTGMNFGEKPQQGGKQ

Substance: FaoB polypeptide of the Pseudomonas putida FaoAB fatty acid oxidation multienzyme complex
- GUS activity (pmol MU/min), OS fraction of flax zygotic embryos, pmfG138:pmf224 (1:1): 386 pmol MU/min
- GUS activity (pmol MU/min), OS fraction of flax zygotic embryos, pmfG138:pmf224 (1:3): 440 pmol MU/min
- GUS activity (pmol MU/min), SN fraction of flax zygotic embryos, pmfG138:pmf224 (1:1): 175 pmol MU/min
- GUS activity (pmol MU/min), SN fraction of flax zygotic embryos, pmfG138:pmf224 (1:3): 214 pmol MU/min
- GUS activity (pmol MU/min), total homogenate of B. napus microspore embryos co-bombarded with pmfG138:pmf224: 85 pmol MU/min
- GUS activity in a GUS-FaoA fusion, transient expression in embryos: > 2 fold
- GUS specific activity, Ara-FaoA-GUS:pha-FaoB against Ara-FaoA-GUS, background subtracted, B. napus microspore embryos: 2 fold
- Specific activity (activity/mg prt), OS fraction of flax zygotic embryos, pmfG138:pmf224 (1:1) (activity/mg prt): 52.8
- Specific activity (activity/mg prt), OS fraction of flax zygotic embryos, pmfG138:pmf224 (1:3) (activity/mg prt): 79
- Specific activity (activity/mg prt), SN fraction of flax zygotic embryos, pmfG138:pmf224 (1:1) (activity/mg prt): 23.9
- Specific activity (activity/mg prt), SN fraction of flax zygotic embryos, pmfG138:pmf224 (1:3) (activity/mg prt): 38.4
- Specific activity (activity/mg prt), total homogenate of B. napus microspore embryos co-bombarded with pmfG138:pmf224 (activity/mg prt): 29.1
